Source: US20120225065A1 (published 2012)

Target: Recombinant human IL-21 (human, UniProt Q9HBE4 25-162)
Assay: cell-based or functional assay

Chain of Recombinant human IL-21 (Q9HBE4 25-162 limits assumed): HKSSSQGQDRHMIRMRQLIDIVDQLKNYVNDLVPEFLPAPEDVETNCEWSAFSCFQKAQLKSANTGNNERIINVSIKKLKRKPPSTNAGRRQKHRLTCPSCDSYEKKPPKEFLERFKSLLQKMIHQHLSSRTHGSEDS

Binder | % IgD-low, CD138+ Plasma Cells at antagonist:ligand ratio 0.16:1 [%] | % IgD-low, CD138+ Plasma Cells at antagonist:ligand ratio 0.6:1 [%] | % IgD-low, CD138+ Plasma Cells at antagonist:ligand ratio 2.5:1 [%] | % IgD-low, CD138+ Plasma Cells at antagonist:ligand ratio 10:1 [%] | % IgD-low, CD138+ Plasma Cells at antagonist:ligand ratio 0.16:1 (actual 0.22:1) [%] | % IgD-low, CD138+ Plasma Cells at antagonist:ligand ratio 0.6:1 (actual 0.9:1) [%] | % IgD-low, CD138+ Plasma Cells at antagonist:ligand ratio 2.5:1 (actual 3.6:1) [%] | % IgD-low, CD138+ Plasma Cells at antagonist:ligand ratio 10:1 (actual 14.4:1) [%]
Heterodimeric IL-21 soluble receptor IL-21R/γc-Fc (Fc fusion, not shown: a dimerising Fc or GST) chain 1: not shown chain 2: LNTTILTPNGNEDTTADFFLTTMPTDSLSVSTLPLPEVQCFVFNVEYMNCTWNSSSEPQPTNLTLHYWYKNSDNDKVQKCSHYLFSEEITSGCQLQKKEIHLYQTFVVQLQDPREPRRQATQMLKLQNLVIPWAPENLTLHKLSESQLELNWNNRFLNHCLEHLVQYRTDWDHSWTEQSVDYRHKFSLPSVDGQKRYTFRVRSRFNPLCGSAQHWSEWSHPIHWGSNTSKENPFLFALEA | 66.7 | 54.2 | 41.7 | 23.4 |  |  |  | 
Human anti-human IL-21 monoclonal antibody clone 366.328.10 (antibody, V domains shown) VH: EVQLVESGGGLVKPGGSLRLSCAASGFIFSSYSMNWVRQAPGKGLEWVSSITSGSYYIHYADSVKGRFTISRDNAKNSLYLQMNSLRAEDTAVYYCVRERGWGYYGMDVWGQGTTVTVSS VL: AIQLTQSPSSLSASVGDRVTITCRASQDIDSALAWYQQKPGKAPKILIHDASSLESGVPSRFSGSGSGTDFTLTISSLQPEDFATYYCQQFNSYPYTFGQGTKLEIK | 52.1 | 41.4 | 20.2 | 15.4 |  |  |  | 
Human anti-human IL-21 monoclonal antibody clone 366.552.11 (antibody, V domains shown) VH: QVQLQESGPGLVKPSETLSLTCTVSGGSISSDFWGWIRQPPGKGLEWIGYISSRGSTNYNPSLKRRVTISVDTSRNQFSLKLSSVTAADTAVYYCARSAGVTDFDFWGQGTLVTVSS VL: DIQMTQSPSSVSASVGDRVTITCRASQGISSWLAWYQHKPGKAPKLLIYVASSLQSGVPSRFSGSGSGTDFTLTISSLQPEDFATYYCQQANSFPLTFGGGTKVEIK |  |  |  |  | 50.3 | 44.8 | 26.4 | 15.4
